Experimental findings from patent US20220204623A1 (BIO THERA SOLUTIONS, published 2022) are described below.

Experiment [1] concerns the target hPD-1 (Sino Biological Inc., Catalog No.: 10377-H03H-B) (human) (UniProt Q15116). The experiment can be described thus: BLI (Octet) as in Example 4, biotinylated hPD-1 on streptavidin biosensor. On the technique in general: In BLI a coated tip is dipped into the sample, and binding shifts an interference pattern.
The target of experiment [2] is T1, hPD-1 (Sino Biological Inc., Catalog No.: 10377-H03H-B) (human, UniProt Q15116 25-167).
T1 construct: Bought protein; also called human PD-1; purified hPD-1
T1 sequence (Q15116 25-167): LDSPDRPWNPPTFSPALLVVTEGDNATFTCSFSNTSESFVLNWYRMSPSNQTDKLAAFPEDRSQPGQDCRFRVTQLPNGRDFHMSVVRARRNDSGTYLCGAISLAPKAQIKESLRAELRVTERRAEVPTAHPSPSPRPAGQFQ
The description is as above. Here is the method: (§1) A streptavidin biosensor was pre-wetted by immersing in PBS in a well for 10 minutes, and then the biosensor was equilibrated with PBS for 2 minutes. The biosensor was immersed in the solution of 20 μg/mL biotinylated hPD-1 in PBS for 5 minutes to couple with biotinylated hPD-1, and then was equilibrated with PBS for 2 minutes. The biosensors were placed in wells containing antibody solutions of various concentrations (0.125 to 2 nM, SDS-PAGE purity >99%) to observe their binding to the anti-PD-1 antibody, and the binding was monitored and measured for 30 minutes. After the biosensor was transferred to PBS, dissociation was monitored and measured for 90 minutes. The observed binding and dissociation rates (kbinding and kdissociation) were fitted with a 1:1 binding global fit model containing all test concentrations, and the equilibrium binding constant KD was calculated.
The amino acid sequences of VL and VH regions of the related antibodies are shown in the sequence listing.

In experiment [3] the target is T1, hPD-1 (Sino Biological Inc., Catalog …). Put plainly: SPR (Biacore), antibody captured on protein A chip, PD-1 in solution 0.625-10 nM, 1:1 Langmuir fit. The procedure:
A protein A chip was used for detection. […] Then the flow rate was adjusted to 30 μl/min, and PD-1 solutions of different concentrations (0.625 nM, 1.25 nM, 2.5 nM, 5 nM, and 10 nM) were fed in sequence, with a binding time of 180 s and a dissociation time of 1,200 s.
For orientation: In SPR one partner is held on a chip, and binding of the other changes the refractive index at the surface.

For experiment [4] the target is unchanged. The experiment can be described thus: ELISA, hPD-1 coated on the plate. The procedure: The binding of the antibodies to hPD-1 was determined by enzyme-linked immunosorbent assay (ELISA). hPD-1 was coated on a 96-well plate by incubation overnight at 4° C. After coating, the plate was washed 5 times with PBST. […] After the binding, the plate was washed 5 times with PBST. The resulting solution was incubated at room temperature in PBST that contained peroxidase (HRP)-labeled goat anti-mouse IgG solution diluted to 1/10000 for 1 hour, washed again, and developed with TMB.
For orientation: In an ELISA, binding on a coated surface is turned into a signal by an enzyme label.

Experiment [5] has as its target T2, hPD-1 on hPD-1-expressing Jurkat cells (Promega, Catalog No.: J1252) (human, UniProt Q15116 25-288).
T2 construct: whole, on cells; also called hPD-1 of Jurkat cells; Jurkat cells expressing hPD-1
The experiment can be described thus: flow cytometry, blocking of 1 ug/mL unlabeled hPD-L1 binding to hPD-1-expressing Jurkat cells. Here is the method: The blocking of ligand binding was assayed by flow cytometry. […] The mixture was placed on ice for 30 minutes, washed 3 times with FACS buffer (PBS containing 0.3% BSA), and incubated with PE-labeled goat anti-human Fc on ice for another 30 minutes. Cells were washed three more times with FACS buffer and analyzed by flow cytometry. Data were analyzed using nonlinear regression of Prism software, and IC₅₀ values were calculated.

Experiment [6] has as its target T1, hPD-1 (Sino Biological Inc., Catalog …). The experiment can be described thus: BLI (ForteBio Octet), biotinylated hPD-1 on streptavidin biosensor, antibody in solution, 1:1 global fit. Here is the method: The assay was performed by coupling a hPD-1 fusion protein to a streptavidin biosensor using biotin.
as §1

The target in experiment [7] is T2, hPD-1 on hPD-1-expressing Jurkat cells …. Put plainly: cell-based or functional assay.

Positions count from the first letter of the chain named.

T2 sequence (Q15116 25-288): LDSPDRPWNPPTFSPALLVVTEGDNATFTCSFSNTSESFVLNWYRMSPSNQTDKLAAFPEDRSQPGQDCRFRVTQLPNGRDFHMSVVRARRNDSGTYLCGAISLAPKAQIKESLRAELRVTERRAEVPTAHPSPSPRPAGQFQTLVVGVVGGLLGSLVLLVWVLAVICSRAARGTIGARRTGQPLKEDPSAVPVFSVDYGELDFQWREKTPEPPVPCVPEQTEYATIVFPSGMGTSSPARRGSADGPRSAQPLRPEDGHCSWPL
hPD-1 (Sino Biological Inc., Catalog No.: 10377-H03H-B) (human), sequence (Q15116 25-167): as the sequence (Q15116 25-167) above

B1: CL1 VH (SEQ ID NO: 7) / CL1 VL (SEQ ID NO: 8), scFv (scFv, part only; not given: linker, domain order, tag, V domains shown, not shown: another chain or arm of the molecule; small tags and cut ends)
VH: QVQLVQSGVEVKKPGASVKVSCKASGYTFTNYYMYWVRQAPGQGLEWMGGINPSNGGTNFNEKFKNRVTLTTDSSTTTAYMELKSLQFDDTAVYYCAARDYRLDMGFEFWGQGTTVTVSS
VL: EIVLTQSPATLSLSPGERATLSCRASKGVSTSGYSYLHWYQQKPGQAPRLLIYLASYLESGVPARFSGSGSGTDFTLTISSLEPEDFAVYYCQHAYDLPLTFGGGTKVEIK
In the case of B1, the Kd in experiment [1] stood at 82 pM.

B2: CL1 VH (SEQ ID NO: 7) / CL7 VL (SEQ ID NO: 40), scFv (scFv, part only; not given: linker, domain order, tag, V domains shown, not shown: another chain or arm of the molecule; small tags and cut ends)
VH: B1 VH
VL: B1 VL with A95S, D97S, L98F
For the molecule B2, the Kd in experiment [1] was 149 pM.

B3: CL1 VH (SEQ ID NO: 7) / CL2 VL (SEQ ID NO: 38), scFv (scFv, part only; not given: linker, domain order, tag, V domains shown, not shown: another chain or arm of the molecule; small tags and cut ends)
VH: B1 VH
VL: B1 VL with A95S, D97G
Regarding B3, the Kd in experiment [1] is 447 pM.

B4: CL1 VH (SEQ ID NO: 7) / CL5 VL (SEQ ID NO: 10), scFv (scFv, part only; not given: linker, domain order, tag, V domains shown, not shown: another chain or arm of the molecule; small tags and cut ends)
VH: B1 VH
VL: B1 VL with A95S
Take B4: the Kd in experiment [1] stood at 143 pM.

B5: CL1 VH (SEQ ID NO: 7) / CL9 VL (SEQ ID NO: 12), scFv (scFv, part only; not given: linker, domain order, tag, V domains shown, not shown: another chain or arm of the molecule; small tags and cut ends)
VH: B1 VH
VL: B1 VL with A95S, D97G, L100V
Consider B5, for which the Kd in experiment [1] is 518 pM.

B6: CL1 VH (SEQ ID NO: 7) / CL5 VL (SEQ ID NO: 10), IgG4 (antibody, V domains shown)
VH: B1 VH
VL: B1 VL with A95S
notes: Form IgG4
Molecule B6 gave a Kd in experiment [2] of 76 pM.

B7: antibody CL1 (antibody, human IgG4 S228P, kappa, V domains shown)
VH: B1 VH
VL: EIVLTQSPATLSLSPGERATLSCRASKGVSTSGYSYLHWYQQKPGQAPRLLIYLASYLESGVPARFSGSGSGTDFTLTISSLEPEDFAVYYCQHAYDLPLTFGGGTKVEIKR
notes: also called anti-hPD-1 antibody CL1; CL1 VH / CL1 VL IgG4
Regarding B7, in experiment [3], the Kd is 606 pM, the koff came out at 0.0005 s⁻¹ and the kon amounted to 825000 M⁻¹ s⁻¹. For the same molecule, the 50% effective concentration (EC50) in experiment [4] was found to be 208 pM. Also, in experiment [2], the Kd amounted to 20.7 pM. Further, the IC50 in experiment [5] was determined as 770 pM. Besides, in experiment [6], the dissociation constant Kd came out at 20.7 pM, the koff amounted to 4.11e-05 s⁻¹ and the kon turned out to be 1.98e+06 M⁻¹ s⁻¹. Moreover, the “Assay for the functional activity EC50” value in experiment [7] worked out at 0.269 µg/mL.

B8: CL1 VH (SEQ ID NO: 7) / CL9 VL (SEQ ID NO: 12), IgG4 (antibody, V domains shown)
VH: B1 VH
VL: B1 VL with A95S, D97G, L100V
notes: Form IgG4
With B8, in experiment [2], the affinity, expressed as Kd, was 229 pM.

B9: CL1 VH (SEQ ID NO: 7) / CL7 VL (SEQ ID NO: 40), IgG4 (antibody, V domains shown)
VH: B1 VH
VL: B1 VL with A95S, D97S, L98F
notes: Form IgG4
Turning to B9, the affinity in experiment [2], expressed as Kd, was 61 pM.

B10: antibody CL5 (antibody, human IgG4, V domains shown)
VH: B1 VH with L103F, F109Y
VL: B1 VL with A95S
B10: the EC50 in experiment [4] is 399 pM. In addition, the “Assay for the functional activity EC50” value in experiment [7] was determined as 0.932 µg/mL.

B11: antibody CL2 (antibody, human IgG4, V domains shown)
VH: B1 VH with R102K, L103F, F109Y
VL: B1 VL with A95S, D97G
Molecule B11 yielded an EC50 in experiment [4] of 451 pM.

B12: antibody CL6 (antibody, human IgG4, V domains shown)
VH: B1 VH with L103F
VL: B1 VL with A95S
As for B12, the EC50 in experiment [4] was determined as 1340 pM.

B13: antibody CL9 (antibody, human IgG4, V domains shown)
VH: B1 VH with R102K, L103F
VL: B1 VL with A95S, D97G, L100V
B13 returned an EC50 in experiment [4] of 594 pM.

B14: antibody CL7 (antibody, human IgG4, V domains shown)
VH: B1 VH with L103F
VL: B1 VL with A95S, D97S, L98F
B14 had an EC50 in experiment [4] of 346 pM.

B15: CL1 VH (SEQ ID NO: 7) / CL2 VL (SEQ ID NO: 38), IgG4 (antibody, V domains shown)
VH: B1 VH
VL: B1 VL with A95S, D97G
notes: Form IgG4
Consider B15, for which the dissociation constant (Kd) in experiment [2] is 189 pM.

Usually Kd stands for a measure of binding affinity in units of concentration. Low readings indicate tighter binding, high ones weaker binding. The term koff denotes a measure of how fast the partners let go of each other. Broadly, the kon is a measure of how fast the partners come together. The EC50 is the concentration needed to bring the measured effect to its halfway point. A higher EC50 goes with weaker potency. Usually IC50 stands for the concentration that gives 50% inhibition. Low readings indicate inhibition by little substance, high ones a need for much substance.
